According to IntAct's records for PubMed 35512704:

B1: Speckle-type POZ protein (Homo sapiens), O43791 (parent)
chain: MSRVPSPPPPAEMSSGPVAESWCYTQIKVVKFSYMWTINNFSFCREEMGEVIKSSTFSSGANDKLKWCLRVNPKGLDEESKDYLSLYLLLVSCPKSEVRAKFKFSILNAKGEETKAMESQRAYRFVQGKDWGFKKFIRRDFLLDEANGLLPDDKLTLFCEVSVVQDSVNISGQNTMNMVKVPECRLADELGGLWENSRFTDCCLCVAGQEFQAHKAILAARSPVFSAMFEHEMEESKKNRVEINDVEPEVFKEMMCFIYTGKAPNLDKMADDLLAAADKYALERLKVMCEDALCSNLSVENAAEILILADLHSADQLKTQAVDFINYHASDVLETSGWKSMVVSHPHLVAEAYRSLASAQCPFLGPPRKRLKQS

Variants of: B1
Settings: with brd4_human BRD4, O60885

| Variant | effect of a mutation on the interaction |
| --- | --- |
| F102C | disrupting interaction strength |

Variants of: B1
Settings: with ncoa3_human NCOA3, Q9Y6Q9

| Variant | effect of a mutation on the interaction |
| --- | --- |
| F102C | disrupting interaction strength |

Variants of: B1
Settings: with jun_human JUN

| Variant | effect of a mutation on the interaction |
| --- | --- |
| F102C | disrupting interaction strength |

Variants of: B1
Settings: with akt1_human AKT1, P31749

| Variant | effect of a mutation on the interaction |
| --- | --- |
| F102C | with no effect |

Variants of: B1
Settings: with alk_human ALK

| Variant | effect of a mutation on the interaction |
| --- | --- |
| F102C | with no effect |

Variants of: B1
Settings: with aph1a_human APH1A

| Variant | effect of a mutation on the interaction |
| --- | --- |
| F102C | with no effect |

Variants of: B1
Settings: with arnt_human ARNT

| Variant | effect of a mutation on the interaction |
| --- | --- |
| F102C | with no effect |

Variants of: B1
Settings: with arc1a_human ARPC1A

| Variant | effect of a mutation on the interaction |
| --- | --- |
| F102C | with no effect |

Variants of: B1
Settings: with bakor_human ATG14, Q6ZNE5

| Variant | effect of a mutation on the interaction |
| --- | --- |
| F102C | with no effect |

Variants of: B1
Settings: with atm_human ATM

| Variant | effect of a mutation on the interaction |
| --- | --- |
| F102C | with no effect |

Variants of: B1
Settings: with atpb_human ATP5F1B

| Variant | effect of a mutation on the interaction |
| --- | --- |
| F102C | with no effect |

Variants of: B1
Settings: with aurkb_human AURKB

| Variant | effect of a mutation on the interaction |
| --- | --- |
| F102C | with no effect |

Variants of: B1
Settings: with axin2_human AXIN2, Q9Y2T1
axin2_human AXIN2, Q9Y2T1, sequence (Q9Y2T1 whole entry): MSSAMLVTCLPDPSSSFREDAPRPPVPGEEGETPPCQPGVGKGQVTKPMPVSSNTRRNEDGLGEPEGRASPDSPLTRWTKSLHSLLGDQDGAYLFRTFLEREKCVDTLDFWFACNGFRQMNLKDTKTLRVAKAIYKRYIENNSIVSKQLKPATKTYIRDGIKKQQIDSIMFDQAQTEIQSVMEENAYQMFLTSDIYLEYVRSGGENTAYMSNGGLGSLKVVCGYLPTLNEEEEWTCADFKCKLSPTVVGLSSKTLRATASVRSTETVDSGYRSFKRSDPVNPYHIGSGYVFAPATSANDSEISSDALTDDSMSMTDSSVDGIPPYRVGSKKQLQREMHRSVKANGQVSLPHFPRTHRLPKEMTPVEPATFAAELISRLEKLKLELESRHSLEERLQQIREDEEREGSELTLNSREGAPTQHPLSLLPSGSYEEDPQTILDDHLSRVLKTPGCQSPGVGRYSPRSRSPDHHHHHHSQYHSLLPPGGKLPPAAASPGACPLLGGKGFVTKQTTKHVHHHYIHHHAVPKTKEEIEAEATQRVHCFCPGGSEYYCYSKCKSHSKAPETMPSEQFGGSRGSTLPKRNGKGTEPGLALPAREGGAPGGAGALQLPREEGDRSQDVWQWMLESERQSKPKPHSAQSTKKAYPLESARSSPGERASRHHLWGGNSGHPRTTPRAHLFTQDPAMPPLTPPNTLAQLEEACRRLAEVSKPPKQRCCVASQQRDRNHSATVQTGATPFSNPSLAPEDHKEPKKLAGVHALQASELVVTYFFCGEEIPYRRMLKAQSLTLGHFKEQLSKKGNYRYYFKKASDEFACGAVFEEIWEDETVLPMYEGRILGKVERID

| Variant | effect of a mutation on the interaction |
| --- | --- |
| F102C | with no effect |

Variants of: B1
Settings: with ufo_human AXL

| Variant | effect of a mutation on the interaction |
| --- | --- |
| F102C | with no effect |

Variants of: B1
Settings: with za2g_human AZGP1, P25311

| Variant | effect of a mutation on the interaction |
| --- | --- |
| F102C | with no effect |

Variants of: B1
Settings: with bap1_human BAP1, Q92560
bap1_human BAP1, Q92560, sequence (Q92560 whole entry): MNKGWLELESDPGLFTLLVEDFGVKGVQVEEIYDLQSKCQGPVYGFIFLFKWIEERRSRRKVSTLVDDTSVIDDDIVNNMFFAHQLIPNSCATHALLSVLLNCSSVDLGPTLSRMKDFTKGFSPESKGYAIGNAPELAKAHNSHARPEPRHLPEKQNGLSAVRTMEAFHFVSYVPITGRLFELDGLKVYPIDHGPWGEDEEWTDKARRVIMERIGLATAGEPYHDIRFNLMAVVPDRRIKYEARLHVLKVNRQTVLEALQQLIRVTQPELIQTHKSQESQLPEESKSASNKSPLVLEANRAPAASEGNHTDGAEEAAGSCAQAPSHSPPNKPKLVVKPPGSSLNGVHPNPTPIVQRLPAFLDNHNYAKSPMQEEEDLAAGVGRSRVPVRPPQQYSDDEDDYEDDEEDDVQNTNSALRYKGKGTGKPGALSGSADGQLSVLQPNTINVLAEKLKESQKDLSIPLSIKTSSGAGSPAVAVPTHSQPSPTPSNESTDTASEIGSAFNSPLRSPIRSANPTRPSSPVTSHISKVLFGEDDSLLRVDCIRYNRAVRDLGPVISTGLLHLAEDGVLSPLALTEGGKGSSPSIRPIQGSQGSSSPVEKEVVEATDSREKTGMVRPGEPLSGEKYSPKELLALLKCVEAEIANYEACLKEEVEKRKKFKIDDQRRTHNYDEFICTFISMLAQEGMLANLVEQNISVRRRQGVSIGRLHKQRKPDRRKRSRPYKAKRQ

| Variant | effect of a mutation on the interaction |
| --- | --- |
| F102C | with no effect |

Variants of: B1
Settings: with bard1_human BARD1, Q99728

| Variant | effect of a mutation on the interaction |
| --- | --- |
| F102C | with no effect |

Variants of: B1
Settings: with bcor_human BCOR

| Variant | effect of a mutation on the interaction |
| --- | --- |
| F102C | with no effect |

Variants of: B1
Settings: with birc2_human BIRC2, Q13490

| Variant | effect of a mutation on the interaction |
| --- | --- |
| F102C | with no effect |

Variants of: B1
Settings: with brd4_human BRD4, O60885
Remark: another data set of the same source

| Variant | effect of a mutation on the interaction |
| --- | --- |
| F102C | with no effect |

Variants of: B1
Settings: with baba2_human BABAM2, Q9NXR7

| Variant | effect of a mutation on the interaction |
| --- | --- |
| F102C | with no effect |

Variants of: B1
Settings: with btg1_human BTG1, P62324
btg1_human BTG1, P62324, sequence (P62324 whole entry): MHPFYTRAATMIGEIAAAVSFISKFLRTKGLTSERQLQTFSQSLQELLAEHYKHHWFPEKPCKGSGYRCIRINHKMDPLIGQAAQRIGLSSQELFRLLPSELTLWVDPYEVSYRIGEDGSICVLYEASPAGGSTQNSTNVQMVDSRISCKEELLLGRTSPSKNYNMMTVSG

| Variant | effect of a mutation on the interaction |
| --- | --- |
| F102C | with no effect |

Variants of: B1
Settings: with btk_human BTK

| Variant | effect of a mutation on the interaction |
| --- | --- |
| F102C | with no effect |

Variants of: B1
Settings: with ccnd1_human CCND1, P24385
ccnd1_human CCND1, P24385, sequence (P24385 whole entry): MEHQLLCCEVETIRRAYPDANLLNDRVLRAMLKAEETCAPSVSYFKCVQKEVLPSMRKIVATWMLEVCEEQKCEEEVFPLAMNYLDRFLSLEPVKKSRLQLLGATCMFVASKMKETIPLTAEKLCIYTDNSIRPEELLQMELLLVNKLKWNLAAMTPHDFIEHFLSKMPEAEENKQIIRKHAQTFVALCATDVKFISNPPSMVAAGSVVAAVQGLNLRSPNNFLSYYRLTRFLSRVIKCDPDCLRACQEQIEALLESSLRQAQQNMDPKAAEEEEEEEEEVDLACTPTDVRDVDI

| Variant | effect of a mutation on the interaction |
| --- | --- |
| F102C | with no effect |

Variants of: B1
Settings: with ccnd2_human CCND2, P30279

| Variant | effect of a mutation on the interaction |
| --- | --- |
| F102C | with no effect |

Variants of: B1
Settings: with ccnd3_human CCND3, P30281

| Variant | effect of a mutation on the interaction |
| --- | --- |
| F102C | with no effect |

Variants of: B1
Settings: with cd44_human CD44, P16070
cd44_human CD44, P16070, sequence (P16070 whole entry): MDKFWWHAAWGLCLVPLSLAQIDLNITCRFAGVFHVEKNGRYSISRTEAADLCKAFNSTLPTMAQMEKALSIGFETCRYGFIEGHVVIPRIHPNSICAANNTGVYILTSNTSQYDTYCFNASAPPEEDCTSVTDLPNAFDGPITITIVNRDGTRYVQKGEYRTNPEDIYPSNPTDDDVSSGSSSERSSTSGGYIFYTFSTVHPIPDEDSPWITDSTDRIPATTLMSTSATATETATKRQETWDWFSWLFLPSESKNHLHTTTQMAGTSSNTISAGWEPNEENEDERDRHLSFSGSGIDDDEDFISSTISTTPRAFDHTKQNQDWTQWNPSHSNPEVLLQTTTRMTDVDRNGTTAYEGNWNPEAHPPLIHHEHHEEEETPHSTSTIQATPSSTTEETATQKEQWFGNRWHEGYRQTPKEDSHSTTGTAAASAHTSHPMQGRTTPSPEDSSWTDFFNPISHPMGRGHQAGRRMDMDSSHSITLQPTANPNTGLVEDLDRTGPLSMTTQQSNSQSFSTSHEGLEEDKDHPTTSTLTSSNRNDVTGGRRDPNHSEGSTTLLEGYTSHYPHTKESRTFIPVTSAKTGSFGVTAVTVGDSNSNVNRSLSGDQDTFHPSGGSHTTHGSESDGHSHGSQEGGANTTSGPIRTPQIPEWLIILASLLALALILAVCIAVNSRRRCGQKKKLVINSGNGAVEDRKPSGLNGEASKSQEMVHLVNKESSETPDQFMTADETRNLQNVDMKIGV

| Variant | effect of a mutation on the interaction |
| --- | --- |
| F102C | with no effect |

Variants of: B1
Settings: with cd79b_human CD79B

| Variant | effect of a mutation on the interaction |
| --- | --- |
| F102C | with no effect |

Variants of: B1
Settings: with cdc27_human CDC27, P30260

| Variant | effect of a mutation on the interaction |
| --- | --- |
| F102C | with no effect |

Variants of: B1
Settings: with cdc73_human CDC73, Q6P1J9

| Variant | effect of a mutation on the interaction |
| --- | --- |
| F102C | with no effect |

Variants of: B1
Settings: with cdk4_human CDK4, P11802
cdk4_human CDK4, P11802, sequence (P11802 whole entry): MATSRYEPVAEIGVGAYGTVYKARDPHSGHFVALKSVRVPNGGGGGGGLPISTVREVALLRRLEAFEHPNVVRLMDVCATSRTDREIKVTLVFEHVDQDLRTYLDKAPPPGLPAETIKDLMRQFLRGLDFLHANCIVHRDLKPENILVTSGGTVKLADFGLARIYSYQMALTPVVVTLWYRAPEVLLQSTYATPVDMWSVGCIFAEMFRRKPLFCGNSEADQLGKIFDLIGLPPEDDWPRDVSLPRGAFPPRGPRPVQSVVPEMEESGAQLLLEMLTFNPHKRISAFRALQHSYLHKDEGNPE

| Variant | effect of a mutation on the interaction |
| --- | --- |
| F102C | with no effect |

Variants of: B1
Settings: with cdk6_human CDK6, Q00534
cdk6_human CDK6, Q00534, sequence (Q00534 whole entry): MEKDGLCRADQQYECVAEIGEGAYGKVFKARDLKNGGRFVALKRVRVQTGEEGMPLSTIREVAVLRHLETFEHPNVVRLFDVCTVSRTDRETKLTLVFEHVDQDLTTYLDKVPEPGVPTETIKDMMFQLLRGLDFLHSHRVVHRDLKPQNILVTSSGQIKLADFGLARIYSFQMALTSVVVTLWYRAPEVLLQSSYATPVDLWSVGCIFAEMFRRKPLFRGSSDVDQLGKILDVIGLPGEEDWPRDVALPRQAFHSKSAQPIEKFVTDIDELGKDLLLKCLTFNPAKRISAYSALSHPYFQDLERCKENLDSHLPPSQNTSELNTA

| Variant | effect of a mutation on the interaction |
| --- | --- |
| F102C | with no effect |

Variants of: B1
Settings: with cdn2c_human CDKN2C

| Variant | effect of a mutation on the interaction |
| --- | --- |
| F102C | with no effect |

Variants of: B1
Settings: with chd1l_human CHD1L

| Variant | effect of a mutation on the interaction |
| --- | --- |
| F102C | with no effect |

Variants of: B1
Settings: with chd2_human CHD2, O14647

| Variant | effect of a mutation on the interaction |
| --- | --- |
| F102C | with no effect |

Variants of: B1
Settings: with ch3l1_human CHI3L1, P36222

| Variant | effect of a mutation on the interaction |
| --- | --- |
| F102C | with no effect |

Variants of: B1
Settings: with ctla4_human CTLA4, P16410

| Variant | effect of a mutation on the interaction |
| --- | --- |
| F102C | with no effect |

Variants of: B1
Settings: with cul3_human CUL3, Q13618
cul3_human CUL3, Q13618, sequence (Q13618 whole entry): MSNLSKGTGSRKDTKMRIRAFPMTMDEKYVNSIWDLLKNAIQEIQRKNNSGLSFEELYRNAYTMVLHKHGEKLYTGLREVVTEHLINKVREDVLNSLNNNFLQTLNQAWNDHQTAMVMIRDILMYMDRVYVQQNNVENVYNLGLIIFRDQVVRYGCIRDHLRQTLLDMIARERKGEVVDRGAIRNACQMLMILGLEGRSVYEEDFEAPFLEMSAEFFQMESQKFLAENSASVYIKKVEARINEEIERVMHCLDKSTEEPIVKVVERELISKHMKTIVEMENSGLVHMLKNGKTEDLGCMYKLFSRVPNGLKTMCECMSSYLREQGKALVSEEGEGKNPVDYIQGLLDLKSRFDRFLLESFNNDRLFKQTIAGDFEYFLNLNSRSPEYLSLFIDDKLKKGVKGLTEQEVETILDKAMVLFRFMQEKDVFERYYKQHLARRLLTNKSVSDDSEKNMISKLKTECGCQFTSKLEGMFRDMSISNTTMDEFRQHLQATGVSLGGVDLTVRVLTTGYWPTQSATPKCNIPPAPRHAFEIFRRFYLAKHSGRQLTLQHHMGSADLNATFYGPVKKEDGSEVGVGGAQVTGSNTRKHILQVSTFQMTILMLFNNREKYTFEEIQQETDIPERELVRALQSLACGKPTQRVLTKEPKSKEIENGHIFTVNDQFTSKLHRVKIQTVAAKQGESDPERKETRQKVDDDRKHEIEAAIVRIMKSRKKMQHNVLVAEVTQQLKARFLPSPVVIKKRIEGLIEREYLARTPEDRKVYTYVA

| Variant | effect of a mutation on the interaction |
| --- | --- |
| F102C | with no effect |

Variants of: B1
Settings: with cul4b_human CUL4B

| Variant | effect of a mutation on the interaction |
| --- | --- |
| F102C | with no effect |

Variants of: B1
Settings: with daxx_human DAXX

| Variant | effect of a mutation on the interaction |
| --- | --- |
| F102C | with no effect |

Variants of: B1
Settings: with ddx5_human DDX5, P17844
ddx5_human DDX5, P17844, sequence (P17844 whole entry): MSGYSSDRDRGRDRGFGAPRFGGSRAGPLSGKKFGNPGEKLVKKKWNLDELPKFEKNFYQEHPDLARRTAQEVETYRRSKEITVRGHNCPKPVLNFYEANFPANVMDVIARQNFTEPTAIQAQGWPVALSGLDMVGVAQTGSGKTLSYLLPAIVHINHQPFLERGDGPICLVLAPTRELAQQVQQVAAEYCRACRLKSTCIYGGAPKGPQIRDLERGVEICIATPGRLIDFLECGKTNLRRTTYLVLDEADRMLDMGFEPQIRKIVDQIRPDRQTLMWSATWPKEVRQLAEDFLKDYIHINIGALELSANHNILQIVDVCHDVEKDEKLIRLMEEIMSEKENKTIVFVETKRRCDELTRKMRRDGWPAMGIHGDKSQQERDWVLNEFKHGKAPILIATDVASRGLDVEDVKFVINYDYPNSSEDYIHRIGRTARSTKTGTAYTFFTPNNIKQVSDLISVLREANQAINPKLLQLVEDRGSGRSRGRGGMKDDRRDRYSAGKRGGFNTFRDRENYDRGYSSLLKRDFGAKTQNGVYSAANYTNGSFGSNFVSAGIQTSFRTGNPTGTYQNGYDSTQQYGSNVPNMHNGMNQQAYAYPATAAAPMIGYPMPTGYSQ

| Variant | effect of a mutation on the interaction |
| --- | --- |
| F102C | with no effect |
